According to article PMC3565030:

Biological target: T1, Eco1 phosphopeptide “94-98-99” (phosphates at Thr94, Ser98 and Ser99), FITC-conjugated (budding yeast)
T1 chain: GTITPLNSSPLKK
Assay: fluorescence polarisation

Kd: 10.3 µM
B1: Cdc4–Skp1 complex (His6-Cdc4-LP6DelA GST-Skp1), P07834 1-779; P52286 1-194 (complex)
chain 1: GTLIKDNLKRDLITSLPFEISLKIFNYLQFEDIINSLGVSQNWNKIIRKSTSLWKKLLISENFVSPKGFNSLNLKLSQKYPKLSQQDRLRLSFLENIFILKNWYNPKFVPQRTTLRGHMTSVITCLQFEDNYVITGADDKMIRVYDSINKKFLLQLSGHDGGVWALKYAHGGILVSGSTDRTVRVWDIKKGCCTHVFEGHNSTVRCLDIVEYKNIKYIVTGSRDNTLHVWKLPKESSVPDHGEEHDYPLVFHTPEENPYFVGVLRGHMASVRTVSGHGNIVVSGSYDNTLIVWDVAQMKCLYILSGHTDRIYSTIYDHERKRCISASMDTTIRIWDLENGELMYTLQGHTALVGLLRLSDKFLVSAAADGSIRGWDANDYSRKFSYHHTNLSAITTFYVSDNILVSGSENQFNIYNLRSGKLVHANILKDADQIWSVNFKGKTLVAAVEKDGQSFLEILDFS
chain 2: MVTSNVVLVSGEGERFTVDKKIAERSLLLKNYLNDMGDDDDEDDDEIVMPVPNVRSSVLQKVIEWAEHHRDSNFPDEDDDDSRKSAPVDSWDREFLKVDQEMLYEIILAANYLNIKPLLDAGCKVVAEMIRGRSPEEIRRTFNIVNDFTPEEEAAIRRENEWAEDR
modifications: not checked
